According to patent publication US20170101442A1:
Ends that are not written are not given here.

Legend:
[1] = biological target: insulin-like growth factor 2 receptor (IGF2R) on rat hepatic stellate cells HSC-T6 (rat); assay: flow cytometry, uptake of 5-FAM labelled peptide by HSC-T6 cells, 1 h
[2] = biological target: insulin-like growth factor 2 receptor (IGF2R) on rat hepatic stellate cells HSC-T6 (rat); assay: flow cytometry, 5-FAM labelled peptide titrated on HSC-T6 cells, 1 h at 37 C; apparent Kd

cellular uptake [1]: 12%
Kd [2]: 12.3 µM
Binder: VHWDFRQWWQPS (also: 5-FAM label, position not given here) [Peptide-431]
